Blank lines part the entries; values can stand above or below the binder they belong to.
Molecular target: human CD137 expressed on cells (Jurkat human CD137 NF-kB luciferase reporter cells; human CD8+ T cells) (human, UniProt Q07011 24-255)
Test: cell-based or functional assay

- Jurkat-CD137/CHO-PD-1 Reporter Assay EC50: 0.57 nM
B1: TPP-982: CD137A-6GS-HSA2-6GS-PDA-His (bispecific antibody)
chain: EVQLVESGGGLVQPGGSLRLSCAASGFTLSNYWMNWVRQAPGKGLEWVANINQDGSERYYVDSVKGRFTISRDNAKNSLYLQMNSLRAEDTAVYYCARGGEGYGVDHYGLDVSGQGTTVTVSSGGGGSGGGGSGGGGSGGGGSGGGGSGGGGSEVQLVESGGGLVKPGGSLRLSCAASGFTFSNYNMNWVRQAPGKGLEWVSSISSAGTHIYYADSVKGRFTISRDNAKNSLYLQMNSLRAEDTAVYYCARDPHSTGWYKDFDYWGQGTLVTVSSGGGGSGGGGSGGGGSGGGGSGGGGSGGGGSEVQLVESGGGLVQPGRSLRLSCAASGFTFDDYALHWVRQAPGKDLEWVSGISWNGGSYGYADSVKGRFTISRDNAKNSLYLQMNSLRAEDTALYYCVREKGPGLTGSTADYYGLDAWGQGTMVTVSSAAAHHHHHH

- Jurkat-CD137/CHO-PD-1 Reporter Assay EC50: 7.18 nM
B2: TPP-971: PDA2-6GS-HSA2-6GS-172E1-13-His (bispecific antibody)
chain: EVQLVESGGGVVRPGGSLRLSCAASGFTFDDYAMSWVRQAPGKGLEWVSGITWNAGSTGYADSVKGRFTISRDNAKNSLYLQMNSLRAEDTALYYCVRDKYSYAWSYDDFDIWGQGTMVTVSSGGGGSGGGGSGGGGSGGGGSGGGGSGGGGSEVQLVESGGGLVKPGGSLRLSCAASGFTFSNYNMNWVRQAPGKGLEWVSSISSAGTHIYYADSVKGRFTISRDNAKNSLYLQMNSLRAEDTAVYYCARDPHSTGWYKDFDYWGQGTLVTVSSGGGGSGGGGSGGGGSGGGGSGGGGSGGGGSEVQLVESGGGVVQPGGSLRLSCAASGFTFSNYGMHWVRQAPGKGLEWVAVISNDGNTKTYADSVKGRFTISRDNSKNTLYLQMNSLRAEDTAVYYCAQDETTTVTASYYFDYWGQGTLVTVSSAAAHHHHHH

- Jurkat-CD137/CHO-PD-1 Reporter Assay EC50: 0.556 nM
B3: TPP-983: CD137A-6GS-HSA2-6GS-PDA2-His (bispecific antibody)
chain: EVQLVESGGGLVQPGGSLRLSCAASGFTLSNYWMNWVRQAPGKGLEWVANINQDGSERYYVDSVKGRFTISRDNAKNSLYLQMNSLRAEDTAVYYCARGGEGYGVDHYGLDVSGQGTTVTVSSGGGGSGGGGSGGGGSGGGGSGGGGSGGGGSEVQLVESGGGLVKPGGSLRLSCAASGFTFSNYNMNWVRQAPGKGLEWVSSISSAGTHIYYADSVKGRFTISRDNAKNSLYLQMNSLRAEDTAVYYCARDPHSTGWYKDFDYWGQGTLVTVSSGGGGSGGGGSGGGGSGGGGSGGGGSGGGGSEVQLVESGGGVVRPGGSLRLSCAASGFTFDDYAMSWVRQAPGKGLEWVSGITWNAGSTGYADSVKGRFTISRDNAKNSLYLQMNSLRAEDTALYYCVRDKYSYAWSYDDFDIWGQGTMVTVSSAAAHHHHHH

- Jurkat-CD137/CHO-PD-1 Reporter Assay EC50: 21.7 nM
B4: TPP-985: CD137D-6GS-HSA2-2-6GS-PDA2-His (bispecific antibody)
chain: EVQLVESGGGVVQPGGSLRLSCAASGFTFSNYGMHWVRQAPGKGLEWVAVISNDGNTKTYADSVKGRFTISRDNSKNTLYLQMNSLRAEDTAVYYCAQDETTTVTASYYFDYWGQGTLVTVSSGGGGSGGGGSGGGGSGGGGSGGGGSGGGGSEVQLVESGGGLVKPGGSLRLSCAASGFTFSNYNMNWVRQAPGKGLEWVSSISSAGTHIYYADSVKGRFTISRDNAKNSLYLQMNSLRAEDTAVYYCARDPHSTGWYKDFDYWGQGTLVTVSSGGGGSGGGGSGGGGSGGGGSGGGGSGGGGSEVQLVESGGGVVRPGGSLRLSCAASGFTFDDYAMSWVRQAPGKGLEWVSGITWNAGSTGYADSVKGRFTISRDNAKNSLYLQMNSLRAEDTALYYCVRDKYSYAWSYDDFDIWGQGTMVTVSSAAAHHHHHH

- Jurkat-CD137/CHO-PD-1 Reporter Assay EC50: 11 nM
B5: TPP-957; PD138G7(G109D)-6GS-172E1-13-6GS-HSA2-His (bispecific antibody)
chain: EVQLVESGGGVVRPGGSLRLSCAASGFTFDDYAMSWVRQAPGKGLEWVSGITWNGGSTGYADSVKDRFTISRDNAKNSLYLQMNSLRAEDTALYYCVRDKYSYAWSYDDFDIWGQGTMVTVSSGGGGSGGGGSGGGGSGGGGSGGGGSGGGGSEVQLVESGGGVVQPGGSLRLSCAASGFTFSNYGMHWVRQAPGKGLEWVAVISNDGNTKTYADSVKGRFTISRDNSKNTLYLQMNSLRAEDTAVYYCAQDETTTVTASYYFDYWGQGTLVTVSSGGGGSGGGGSGGGGSGGGGSGGGGSGGGGSEVQLVESGGGLVKPGGSLRLSCAASGFTFSNYNMNWVRQAPGKGLEWVSSISSAGTHIYYADSVKGRFTISRDNAKNSLYLQMNSLRAEDTAVYYCARDPHSTGWYKDFDYWGQGTLVTVSSAAAHHHHHH

- Jurkat-CD137/CHO-PD-1 Reporter Assay EC50: 3.61 nM
B6: TPP-1008: PDA-6GS-HSA3-6GS-CD137D-His (bispecific antibody)
chain: EVQLVESGGGLVQPGRSLRLSCAASGFTFDDYALHWVRQAPGKDLEWVSGISWNGGSYGYADSVKGRFTISRDNAKNSLYLQMNSLRAEDTALYYCVREKGPGLTGSTADYYGLDAWGQGTMVTVSSGGGGSGGGGSGGGGSGGGGSGGGGSGGGGSEVQLLESGGGLVKPGGSLRLSCAASGFTVSSYTMNWVRQAPGKGLEWVSSISSSGRYIYYADSVKGRFTISRDNAKNSLYLQMNSLRAEDTAVYYCARDPRMVGNPHEFDIWGQGTMVTVSSGGGGSGGGGSGGGGSGGGGSGGGGSGGGGSEVQLVESGGGVVQPGGSLRLSCAASGFTFSNYGMHWVRQAPGKGLEWVAVISNDGNTKTYADSVKGRFTISRDNSKNTLYLQMNSLRAEDTAVYYCAQDETTTVTASYYFDYWGQGTLVTVSSAAAHHHHHH

- Jurkat-CD137/CHO-PD-1 Reporter Assay EC50: 11.5 nM
B7: TPP-975: CD137D-6GS-PDA2-6GS-HSA2-His (bispecific antibody)
chain: EVQLVESGGGVVQPGGSLRLSCAASGFTFSNYGMHWVRQAPGKGLEWVAVISNDGNTKTYADSVKGRFTISRDNSKNTLYLQMNSLRAEDTAVYYCAQDETTTVTASYYFDYWGQGTLVTVSSGGGGSGGGGSGGGGSGGGGSGGGGSGGGGSEVQLVESGGGVVRPGGSLRLSCAASGFTFDDYAMSWVRQAPGKGLEWVSGITWNAGSTGYADSVKGRFTISRDNAKNSLYLQMNSLRAEDTALYYCVRDKYSYAWSYDDFDIWGQGTMVTVSSGGGGSGGGGSGGGGSGGGGSGGGGSGGGGSEVQLVESGGGLVKPGGSLRLSCAASGFTFSNYNMNWVRQAPGKGLEWVSSISSAGTHIYYADSVKGRFTISRDNAKNSLYLQMNSLRAEDTAVYYCARDPHSTGWYKDFDYWGQGTLVTVSSAAAHHHHHH

- Jurkat-CD137/CHO-PD-1 Reporter Assay EC50: 34.7 nM
B8: TPP-1009: PDA-6GS-hsa1-6GS-CD137D-His (bispecific antibody)
chain: EVQLVESGGGLVQPGRSLRLSCAASGFTFDDYALHWVRQAPGKDLEWVSGISWNGGSYGYADSVKGRFTISRDNAKNSLYLQMNSLRAEDTALYYCVREKGPGLTGSTADYYGLDAWGQGTMVTVSSGGGGSGGGGSGGGGSGGGGSGGGGSGGGGSEVQLVESGGGLVQPGRSLRLSCAASGFTFHHYAMHWVRQAPGKGLEWVSGISWNGNKITYADSVKGRFTISRDNAKNSLYLQMNSLRAEDTALYYCVRDSSLFIVGAPTFEHWGRGTLVTVSSGGGGSGGGGSGGGGSGGGGSGGGGSGGGGSEVQLVESGGGVVQPGGSLRLSCAASGFTFSNYGMHWVRQAPGKGLEWVAVISNDGNTKTYADSVKGRFTISRDNSKNTLYLQMNSLRAEDTAVYYCAQDETTTVTASYYFDYWGQGTLVTVSSAAAHHHHHH

- Jurkat-CD137/CHO-PD-1 Reporter Assay EC50: 5.29 nM
B9: TPP-1012 PD138G7(G109D)-6GS-HSA1-6GS-CD137D-His (bispecific antibody)
chain: EVQLVESGGGVVRPGGSLRLSCAASGFTFDDYAMSWVRQAPGKGLEWVSGITWNGGSTGYADSVKDRFTISRDNAKNSLYLQMNSLRAEDTALYYCVRDKYSYAWSYDDFDIWGQGTMVTVSSGGGGSGGGGSGGGGSGGGGSGGGGSGGGGSEVQLVESGGGLVQPGRSLRLSCAASGFTFHHYAMHWVRQAPGKGLEWVSGISWNGNKITYADSVKGRFTISRDNAKNSLYLQMNSLRAEDTALYYCVRDSSLFIVGAPTFEHWGRGTLVTVSSGGGGSGGGGSGGGGSGGGGSGGGGSGGGGSEVQLVESGGGVVQPGGSLRLSCAASGFTFSNYGMHWVRQAPGKGLEWVAVISNDGNTKTYADSVKGRFTISRDNSKNTLYLQMNSLRAEDTAVYYCAQDETTTVTASYYFDYWGQGTLVTVSSAAAHHHHHH

- Jurkat-CD137/CHO-PD-1 Reporter Assay EC50: 4.11 nM
B10: TPP-1011: PD138G7(G109D)-6GS-HSA3-6GS-CD137D-His (bispecific antibody)
chain: EVQLVESGGGVVRPGGSLRLSCAASGFTFDDYAMSWVRQAPGKGLEWVSGITWNGGSTGYADSVKDRFTISRDNAKNSLYLQMNSLRAEDTALYYCVRDKYSYAWSYDDFDIWGQGTMVTVSSGGGGSGGGGSGGGGSGGGGSGGGGSGGGGSEVQLLESGGGLVKPGGSLRLSCAASGFTVSSYTMNWVRQAPGKGLEWVSSISSSGRYIYYADSVKGRFTISRDNAKNSLYLQMNSLRAEDTAVYYCARDPRMVGNPHEFDIWGQGTMVTVSSGGGGSGGGGSGGGGSGGGGSGGGGSGGGGSEVQLVESGGGVVQPGGSLRLSCAASGFTFSNYGMHWVRQAPGKGLEWVAVISNDGNTKTYADSVKGRFTISRDNSKNTLYLQMNSLRAEDTAVYYCAQDETTTVTASYYFDYWGQGTLVTVSSAAAHHHHHH

- Jurkat-CD137/CHO-PD-1 Reporter Assay EC50: 10.9 nM
B11: TPP-958: PD138G7(G109D)-6GS-172E1-13-6GS-HSA3-His (bispecific antibody)
chain: EVQLVESGGGVVRPGGSLRLSCAASGFTFDDYAMSWVRQAPGKGLEWVSGITWNGGSTGYADSVKDRFTISRDNAKNSLYLQMNSLRAEDTALYYCVRDKYSYAWSYDDFDIWGQGTMVTVSSGGGGSGGGGSGGGGSGGGGSGGGGSGGGGSEVQLVESGGGVVQPGGSLRLSCAASGFTFSNYGMHWVRQAPGKGLEWVAVISNDGNTKTYADSVKGRFTISRDNSKNTLYLQMNSLRAEDTAVYYCAQDETTTVTASYYFDYWGQGTLVTVSSGGGGSGGGGSGGGGSGGGGSGGGGSGGGGSEVQLLESGGGLVKPGGSLRLSCAASGFTVSSYTMNWVRQAPGKGLEWVSSISSSGRYIYYADSVKGRFTISRDNAKNSLYLQMNSLRAEDTAVYYCARDPRMVGNPHEFDIWGQGTMVTVSSAAAHHHHHH

- Jurkat-CD137/CHO-PD-1 Reporter Assay EC50: 11.8 nM
B12: TPP-984: CD137D-6GS-HSA2-6GS-PDA-His (bispecific antibody)
chain: EVQLVESGGGVVQPGGSLRLSCAASGFTFSNYGMHWVRQAPGKGLEWVAVISNDGNTKTYADSVKGRFTISRDNSKNTLYLQMNSLRAEDTAVYYCAQDETTTVTASYYFDYWGQGTLVTVSSGGGGSGGGGSGGGGSGGGGSGGGGSGGGGSEVQLVESGGGLVKPGGSLRLSCAASGFTFSNYNMNWVRQAPGKGLEWVSSISSAGTHIYYADSVKGRFTISRDNAKNSLYLQMNSLRAEDTAVYYCARDPHSTGWYKDFDYWGQGTLVTVSSGGGGSGGGGSGGGGSGGGGSGGGGSGGGGSEVQLVESGGGLVQPGRSLRLSCAASGFTFDDYALHWVRQAPGKDLEWVSGISWNGGSYGYADSVKGRFTISRDNAKNSLYLQMNSLRAEDTALYYCVREKGPGLTGSTADYYGLDAWGQGTMVTVSSAAAHHHHHH
